Data set [1] concerns the target Latent TGFβ Binding Protein-1, short form (LTBP1S), full length. As to the kind of experiment: negative stain EM; LTBP1 oligomers imaged by negative stain EM; lengths measured with ImageJ (n = 100 from 32 images).
Data set [2] shares this target. Briefly: SEC-MALS; Superdex 200 or Superose 6; 0.5 ml at ~0.5 mg/ml; 10 mM Tris, 150 mM NaCl, 2 mM CaCl2, pH 7.4; self-association; NT2 monomer also stored overnight at 4 °C in 2 mM calcium and the dimer fraction rerun. For orientation: In gel filtration, larger molecules generally elute earlier.
Data set [3] concerns the molecule itself. The description is as above.
Data set [4] deals with the molecule itself. As to the kind of experiment: AUC; ~0.5 mg/ml; 10 mM Tris, 150 mM NaCl, 2 mM CaCl2, pH 7.4; self-association; NT1 also after 12 h pre-incubation with ~10x molar excess of low molecular weight heparin.

Turning to “Latent TGFβ Binding Protein-1, short form (LTBP1S), full length (natural protein)”, the stoichiometry N in data set [1] and in data set [2] was 4 to 5 each time.

B1: LTBP1 N-terminal construct NT2 (residues 21–630) (domain or fragment, UniProt Q14766-2 21-630, looked up)
chain: NHTGRIKVVFTPSICKVTCTKGSCQNSCEKGNTTTLISENGHAADTLTATNFRVVICHLPCMNGGQCSSRDKCQCPPNFTGKLCQIPVHGASVPKLYQHSQQPGKALGTHVIHSTHTLPLTVTSQQGVKVKFPPNIVNIHVKHPPEASVQIHQVSRIDGPTGQKTKEAQPGQSQVSYQGLPVQKTQTIHSTYSHQQVIPHVYPVAAKTQLGRCFQETIGSQCGKALPGLSKQEDCCGTVGTSWGFNKCQKCPKKPSYHGYNQMMECLPGYKRVNNTFCQDINECQLQGVCPNGECLNTMGSYRCTCKIGFGPDPTFSSCVPDPPVISEEKGPCYRLVSSGRQCMHPLSVHLTKQLCCCSVGKAWGPHCEKCPLPGTAAFKEICPGGMGYTVSGVHRRRPIHHHVGKGPVFVKPKNTQPVAKSTHPPPLPAKEEPVEALTFSREHGPGVAEPEVATAPPEKEIPSLDQEKTKLEPGQPQLSPGISTIHLHPQFPVVIEKTSPPVPVEVAPEASTSSASQVIAPTQVTEINECTVNPDICGAGHCINLPVRYTCICYEGYRFSEQQRKCVDIDECTQVQHLCSQGRCENTEGSFLCICPAGFMASEEGTNCI
notes: LTBP1S residues 21-630; also called NT2 region
For B1, the “stoichiometry N” value in data set [3] was determined as 2.

B2: LTBP1 N-terminal construct NT1 (residues 21–488) (domain or fragment, UniProt Q14766-2 21-488, looked up)
chain: NHTGRIKVVFTPSICKVTCTKGSCQNSCEKGNTTTLISENGHAADTLTATNFRVVICHLPCMNGGQCSSRDKCQCPPNFTGKLCQIPVHGASVPKLYQHSQQPGKALGTHVIHSTHTLPLTVTSQQGVKVKFPPNIVNIHVKHPPEASVQIHQVSRIDGPTGQKTKEAQPGQSQVSYQGLPVQKTQTIHSTYSHQQVIPHVYPVAAKTQLGRCFQETIGSQCGKALPGLSKQEDCCGTVGTSWGFNKCQKCPKKPSYHGYNQMMECLPGYKRVNNTFCQDINECQLQGVCPNGECLNTMGSYRCTCKIGFGPDPTFSSCVPDPPVISEEKGPCYRLVSSGRQCMHPLSVHLTKQLCCCSVGKAWGPHCEKCPLPGTAAFKEICPGGMGYTVSGVHRRRPIHHHVGKGPVFVKPKNTQPVAKSTHPPPLPAKEEPVEALTFSREHGPGVAEPEVATAPPEKEIPSLDQE
notes: LTBP1S residues 21-488; also called NT1 region
In the case of B2, the “stoichiometry N” value in data set [4] worked out at 2.

By stoichiometry N is commonly meant the number of molecules, sites or subunits per partner or assembly.

The values above are taken from PMC5039643, “Independent multimerization of Latent TGFβ Binding Protein-1 stabilized by cross-linking and enhanced by heparan sulfate” (Scientific Reports, 2016).
